Two molecules from patent publication US7514408B1, “β-secretase enzyme compositions and methods” (Elan Pharmaceuticals, Inc., priority 1999, dated 2009) can be followed below.

Numbered stars: 1 amine (or outer) side, 2 acyl side, 3 side chain; on linkers, the order of the positions; unused ones are H or OH. Square brackets hold non-standard residues; d marks the D form. Peptide text beside a SMILES is read from it. Sta = CC(C)C[C@H](N)[C@@H](O)CC(=O)O; X1 = CC(C)CC(N[*:1])C(O)C(=O)[*:2]

The target of the assay is β-secretase (Homo sapiens, UniProt P56817). Briefly: MBP C125 assay of peptide inhibitors. In kind it is biochemical. The protocol:
The substrates for these studies were synthesized using solid support sequential synthesis as described in Example 7. Assays of the inhibitory activity were performed in the MBP C125 assays described in Example 4 and IC50 values were generated for the heptameric inhibitors are reported in Table 9. Preferred inhibitors of the invention are those compounds in Group III, particularly preferred inhibitors are in Group II and the most preferred are the inhibitors of Group I.
MBP-C125 Assay: Two recombinantly-expressed proteins (FIG. 19 and FIG. 20) were used as substrates for β-secretase. The preferred substrate (FIG. 19) was expressed in E. coli as a fusion protein of the last 125 amino acids of APP fused to the carboxy-terminal end of maltose-binding protein (MBP), using commercially available vectors from New England Biolabs. […]
Recombinant proteins were generated with both the wild-type APP sequence (MBP-C125 WT) at the cleavage site ( . . . Val-Lys-Met-Asp-Ala . . . ). […] This amino-terminal fragment can be recognized on Western blots with the same Ab, or, quantitatively, using an anti-MBP capture-biotinylated SW-192 reporter sandwich format, as shown in FIG. 19. […]
Microtiter 96-well plates were coated with purified anti-MBP antibody (@ 5-μg/ml), followed by blocking with human serum albumin. […] Plates were read in a Cytofluor 2350 Fluorescent Measurement System. […]

Sequence of β-secretase (P56817 46-501): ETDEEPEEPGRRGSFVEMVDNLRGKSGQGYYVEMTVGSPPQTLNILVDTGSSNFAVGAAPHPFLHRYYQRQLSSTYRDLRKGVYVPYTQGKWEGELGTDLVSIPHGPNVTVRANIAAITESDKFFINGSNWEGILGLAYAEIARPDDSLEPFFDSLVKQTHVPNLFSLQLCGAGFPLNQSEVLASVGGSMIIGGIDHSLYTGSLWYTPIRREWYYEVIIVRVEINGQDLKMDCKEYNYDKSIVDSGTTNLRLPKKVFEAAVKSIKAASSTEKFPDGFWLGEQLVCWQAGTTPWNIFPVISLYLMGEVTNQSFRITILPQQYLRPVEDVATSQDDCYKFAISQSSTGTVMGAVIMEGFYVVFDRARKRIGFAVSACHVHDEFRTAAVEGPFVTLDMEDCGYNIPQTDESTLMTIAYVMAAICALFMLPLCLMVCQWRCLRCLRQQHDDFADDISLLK

Regarding “NH2-KTEEISEVNVAEF-COOH (H-KTEEISEVN[Sta]VAEF-OH) [P10-P4′sta D→V]”, the “inhibitor potency relative to the valine substitution alone” value (fold more potent than P1' valine substituted peptide) is on record as “about 100 times”.
The IC50 is the concentration that inhibits the measured activity by half. Regarding `CSCC[C@H](NC(=O)[C@@H](NC(C)=O)C(C)C)C(=O)NC(CC(C)C)C(O)C(=O)N[C@H](C(=O)N[C@@H](C)C(=O)N[C@@H](CCC(=O)O)C(=O)N[C@@H](Cc1ccccc1)C(=O)O)C(C)C` (some centres unmarked) [Example 7P] (Ac-VM[X1]VAEF-OH), the 50% inhibitory concentration (IC50) (MBP C125 assay, heptamer peptides, read-out: IC50 Group) was in the range of 1 to 10 µM.
